Patent publication US20030224375A1, “Assays for evaluating the function of rna helicases” (priority 2002, published 2003)

Assays:
[1] = target: NPH-II (DExH RNA helicase) (Vaccinia virus) (UniProt P12927); assay: EMSA
[2] = target: U1A (N-terminal RNP domain, residues 1-117) (UniProt P09012); assay: EMSA
[3] = system: RNA substrate containing the U1A binding site from the 3′-untranslated region (UTR) of U1A mRNA; assay: U1A dissociation (off-rate) from RNA substrate, gel-shift with U1A trap
Procedure: (§1) FIG. 3. Active displacement of U1A by NPH-II. Dissociation experiments were conducted with 1 nM RNA substrate and 10 nM U1A in a buffer of 40 mM Tris/HCl (pH 8.0), 4 mM MgCl2 at 23° C. (final volume, 40 μL)- Reactions were performed as described in FIG. 2, except that they were initiated by addition of ATP (3.5 mM final concentration) and U1A trap (200 nM final concentration (16)), as indicated. Aliquots (6 μL) were withdrawn at 0, 1, 4, 8, 12, and 20 minutes, mixed with 2 μL of 100 mM EDTA and 2.5 μM NPH-II trap (which serves to capture dissociated NPH-II (16)) in 30% glycerol. Each aliquot was then loaded immediately on a 8% native polyacrylamide gel, which was run at 4° C. at 10V/cm. Bands were visualized by PhosphorImager. U1A-bound and free RNA as well as unwound and duplex RNA species are indicated by the cartoons at left (D: bound U1A dimer, M: bound U1A monomer, F: U1A free duplex substrate, U: unwound substrate). A. Release of U1A upon addition of ATP (initiated by adding ATP together with U1A trap). B. Release of U1A upon addition of NPH-II without ATP (initiated by adding only U1A trap). C. Release of U1A in the presence of ATP and NPH-II (initiated by adding ATP together with U1A trap) D. Trapping control: U1A trap is added together with RNA substrate to assess trapping efficiency. Aliquots were removed and treated as described above. E-H. Same reactions as above, but with blunt-end control duplex.
The off-rate for U1A was measured by saturating the substrate with U1A and, after complex formation, adding a large excess of RNA that contains another high-affinity U1A binding site (15). This prevented U1A from re-binding the substrate once it detached and enabled us to monitor the rate of U1A release by gel-shift electrophoresis (FIG. 3).

[4] = system: RNA substrate containing the U1A binding site from the 3′-untranslated region (UTR) of U1A mRNA; conditions: previously shown; cited from earlier work
[5] = target: U1A (N-terminal RNP domain, residues 1-117) (UniProt P09012 P09012:1-117); assay: competition; used at 200 nM to trap dissociated U1A; conditions: chain copies: 2 (stated, dimer; monomer also seen); hairpin
Procedure: as §1, with “MgCl₂” for “MgCl2”, “E-H. Same reactions as above, but with blunt-end control duplex.” left out

DNA = conditions: cited from earlier work

Molecule: 36 bp duplex substrate LS36 with 3' overhang
- activity ([1]; unwinding rate constant 3.5±0.2 independent of duplex length, Mg2+, 3.5 mM ATP): 3.5 min⁻¹

Molecule: 83 bp duplex substrate LS83 with 3' overhang
- activity ([1]; unwinding rate constant 3.5±0.2 independent of duplex length, lower amplitude with trap RNA, Mg2+, 3.5 mM ATP): 3.5 min⁻¹

Molecule: U1A 3'UTR binding site helicase substrate with 24-nt 3' overhang (AN22U-3')
- activity ([1]; unwinding rate constant without U1A, 3.5 mM ATP, 4 mM MgCl2, pH 8.0, room temperature, with U1A k1 3.52 min-1): 3.5 min⁻¹
- koff ([2]; 40 mM Tris pH 8.0, 4 mM MgCl2, 23 C, U1A trap, no NPH-II, high affinity binding at 10 nM U1A): 0.000167 s⁻¹

Molecule: U1A: RNA-binding protein with N-terminal RNP domain, constituent of the spliceosomal machinery
- U1A binding to substrate and control RNA ([3]; gel shift, 1 nM RNA, 10 nM U1A): high affinity
- off-rate koff of U1A ([3]; without NPH-II (and ATP)): ~10^−2 min^−1
- U1A dissociates from the substrate ([3]; without NPH-II, within 20 minutes): roughly 15%
- affinity of extended two-piece substrate for U1A binding [4]: subnanomolar affinity

Molecule: blunt-end U1A binding site control duplex
- koff ([2]; off-rate similar to overhang substrate, not increased by NPH-II plus ATP): 0.000167 s⁻¹

Molecule: multi-piece substrates (nicked top strand)
- activity ([1]; both pieces displaced, 3.3±0.5, Mg2+, trap RNA, 3'-to-5' directionality): 3.3 min⁻¹

Molecule: GGAGAACCAUUGCACUCCGGUUCUUC (ssRNA) [U1A trap (U1 snRNA hairpin)]
- binding result [5]: binds

B1: UvrD DNA helicase: DNA helicase cited for comparison of unwinding step size (Ali and Lohmann, 1997) (protein, UniProt P03018 1-720, looked up)
DNA helicase II: MDVSYLLDSLNDKQREAVAAPRSNLLVLAGAGSGKTRVLVHRIAWLMSVENCSPYSIMAVTFTNKAAAEMRHRIGQLMGTSQGGMWVGTFHGLAHRLLRAHHMDANLPQDFQILDSEDQLRLLKRLIKAMNLDEKQWPPRQAMWYINSQKDEGLRPHHIQSYGNPVEQTWQKVYQAYQEACDRAGLVDFAELLLRAHELWLNKPHILQHYRERFTNILVDEFQDTNNIQYAWIRLLAGDTGKVMIVGDDDQSIYGWRGAQVENIQRFLNDFPGAETIRLEQNYRSTSNILSAANALIENNNGRLGKKLWTDGADGEPISLYCAFNELDEARFVVNRIKTWQDNGGALAECAILYRSNAQSRVLEEALLQASMPYRIYGGMRFFERQEIKDALSYLRLIANRNDDAAFERVVNTPTRGIGDRTLDVVRQTSRDRQLTLWQACRELLQEKALAGRAASALQRFMELIDALAQETADMPLHVQTDRVIKDSGLRTMYEQEKGEKGQTRIENLEELVTATRQFSYNEEDEDLMPLQAFLSHAALEAGEGQADTWQDAVQLMTLHSAKGLEFPQVFIVGMEEGMFPSQMSLDEGGRLEEERRLAYVGVTRAMQKLTLTYAETRRLYGKEVYHRPSRFIGELPEECVEEVRLRATVSRPVSHQRMGTPMVENDSGYKLGQRVRHAKFGEGTIVNMEGSGEHSRLQVAFQGQGIKWLVAAYARLESV
- unwinding step size (DNA): 4-5 bp
